Positions count from the first letter of the chain named. Numbers in names are those of the source.
Key:
[1] = molecular target: biotinylated gp41 MPER peptide RRR-(656-683)-RRK-biotin (HIV-1); assay: SPR: biotinylated MPER peptide on an SA chip, Fab as analyte, 1:1 Langmuir fit
[2] = molecular target: soluble gp41 MPER peptide RRR-(656-683)-RRR (HIV-1); assay: SPR: variant IgG captured on an anti-human IgG chip, MPER peptide as analyte

B1: 10E8 Fab (antigen binding fragment of 10E8) (Fab, V domains shown)
VH: EVQLVESGGGLVKPGGSLRLSCSASGFDFDNAWMTWVRQPPGKGLEWVGRITGPGEGWSVDYAAPVEGRFTISRLNSINFLYLEMNNLRMEDSGLYFCARTGKYYDFWSGYPPGEEYFQDWGRGTLVTVSS
VL: SYELTQETGVSVALGRTVTITCRGDSLRSHYASWYQKKPGQAPILLFYGKNNRPSGVPDRFSGSASGNRASLTISGAQAEDDAEYYCSSRDKSGSRLSVFGGGTKLTVL
For B1, which Kd [1] is on record?
Its Kd is 17 nM.

B2: 10E8 IgG alanine variant E53A (heavy chain, Kabat) (antibody, V domains shown)
VH: B1 VH with E56A
VL: B1 VL
For B2, which fold decrease in affinity relative to wild type 10E8 [2] is on record?
The fold decrease in affinity relative to wild type 10E8 was 60 fold.

Source: patent publication US20140348785A1
